Reference: article PMC10107573

Biological target: recombinant biotinylated SARS-CoV-2 spike RBD, wild type (SARS-CoV-2) (UniProt P0DTC2)
Assay: BLI
Details: bispecific antibody

Row | Substance | Kd [nM]
1 | bispecific antibody BI-2C5B (IgG-ScFv format: 6-2C IgG with 10-5B ScFv) (from UniProt P01857) | 4.71
2 | bispecific antibody BI-2C1C (IgG-ScFv format, from mAbs 6-2C and 13-1C) (from UniProt P01857) | 1.04
3 | bispecific antibody BI-1C2C (IgG-ScFv format, from mAbs 13-1C and 6-2C) (from UniProt P01857) | 2.16
4 | bispecific antibody BI-5B2C (IgG-ScFv format: 10-5B IgG with 6-2C ScFv) (from UniProt P01857) | 4.89
